The target in test [1] is T1, Human TGFβ1 (human, UniProt P01137 279-390).
T1 construct: also called Transforming Growth Factor-β1
Put plainly: SPR (Biacore T200), TGFβ1 amine-coupled to CM5 chip, Fab injected. For orientation: Surface plasmon resonance follows binding to a sensor surface in real time, without labels.

The target of test [2] is T1, Human TGFβ1.
The target of test [3] is T1, Human TGFβ1. Briefly: Octet QK384, Fab from conditioned medium captured on anti-Fab-CH1 biosensors, 200 nM TGFβ1; qualitative. The protocol:
Conditioned media (CM) was harvested 4 days post-transfection and the Octet QK384 instrument was used to calculate expression level and TGFβ1 binding in a single assay. […] Binding to anti-Fab-CH1 biosensors was measured for 2 min at 1000 rpm and 30° C. plate temperature for quantitation and capture. The sensors were then moved into wells containing 200 nM of TGFβ1 for binding assessment.
In general terms: In BLI a coated tip is dipped into the sample, and binding shifts an interference pattern.

As usually defined, the Kd is a measure of binding affinity in units of concentration. A low value points to higher affinity. The term koff denotes the first-order rate constant of dissociation. Read a low koff as a long-lived complex. One may read the kon as the rate constant with which the complex forms.

T1 sequence (P01137 279-390 limits assumed): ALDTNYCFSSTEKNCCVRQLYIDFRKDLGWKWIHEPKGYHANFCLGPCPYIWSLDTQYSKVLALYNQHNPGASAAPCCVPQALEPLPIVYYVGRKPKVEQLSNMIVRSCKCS

In the test with Human TGFβ1 [1], GC1008 Fab showed a dissociation constant (Kd) of 2.9 nM, an off-rate (koff) of 0.00208 s⁻¹ and a kon of 711000 M⁻¹ s⁻¹.
GC1008 control (antibody) displayed an IC50 (read off the curve) in the test with Human TGFβ1 [2] of 1 ng/mL.

B1: CAT192 A25S Fab (Fab, V domains shown)
VH: EVQLVESGGGVVQPGRSLRLSCAASGFTFSSYGMHWVRQAPGKELEWVAVISYDGSIKYYADSVKGRFTISRDNSKNTLYLQMNSLRAEDTAVYYCARTGEYSGYDTDPQYSWGQGTTVTVSS
VL: EIVLTQSPSSLSASVGDRVTITCRSSQGIGDDLGWYQQKPGKAPILLIYGTSTLQSGVPSRFSGSGSGTDFTLTINSLQPEDFATYYCLQDSNYPLTFGGGTRLEIKR
notes: Control light chain mutant in the Fv; His-tagged HC Fab, HC limits see recheck; also called A25S mutant
As to B1, the binding result with Human TGFβ1 [3] is reported as “binds”.

The values are drawn from patent US20250179163A1 (Sanofi, published 2025).
